Assay results from US20240383958A1, “APELIN RECEPTOR AGONISTS AND USES THEREOF” (VISTERRA, INC., priority 2023, published 2024).
Residue numbers refer to the chain shown, from its start. Names and notes keep the numbering of the source.

T1: apelin receptor (AGTRL1) on CHO-K1 cells (UniProt P35414 1-380, limits assumed)
T1 sequence (looked up): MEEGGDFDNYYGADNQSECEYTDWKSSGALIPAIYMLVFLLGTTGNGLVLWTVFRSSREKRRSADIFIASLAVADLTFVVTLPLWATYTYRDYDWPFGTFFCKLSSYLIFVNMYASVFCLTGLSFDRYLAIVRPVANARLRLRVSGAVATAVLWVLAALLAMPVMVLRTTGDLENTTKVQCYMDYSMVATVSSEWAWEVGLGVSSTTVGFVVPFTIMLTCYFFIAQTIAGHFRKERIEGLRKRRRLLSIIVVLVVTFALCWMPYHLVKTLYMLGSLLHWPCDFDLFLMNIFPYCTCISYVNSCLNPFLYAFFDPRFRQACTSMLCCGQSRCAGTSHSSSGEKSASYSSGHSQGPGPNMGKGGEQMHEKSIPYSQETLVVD

B1: ELA-A: Fc-linker fusion of wild-type elabela-22 KLRKHNCLQRRCMPLHSRVPFP (protein)
chain: MRAWIFFLLCLAGRALADKTHTSPPSPAPEAAGGPSVFLFPPKPKDTLMISRTPEVTCVVVDVSHEDPEVKFNWYVDGVEVHNAKTKPREEQYNSTYRVVSVLTVLHQDWLNGKEYKCKVSNKALPAPIEKTISKAKGQPREPQVYTLPPSREEMTKNQVNLTCLVKGFYPSDIAVEWESNGQPENNYKTTPPVLDSDGSFFLNSTLTVDKSRWQQGNVFSCSVMHEALHNHYTQKSLSLSPGKGGGGSGGGGSGGGGSKLRKHNCLQRRCMPLHSRVPFP
B2: ELA-G: Fc-linker fusion of elabela analogue KLRKHNCLQRRCMPLHSYVPFP (R18Y) (protein)
chain: B1 chain with R277Y
B3: ELA-B: Fc-linker fusion of elabela analogue KLNKHNCLQRRCMPLHSRVPFP (R3N) (protein)
chain: B1 chain with R262N
B4: ELA-I: Fc-linker fusion of elabela analogue KLRKHNSLQRRYMPLHSRVPFP (C7S, C12Y) (protein)
chain: B1 chain with C266S, C271Y
B5: ELA-L: Fc-linker fusion of elabela analogue KLRKHNCATRRCMPLHSRVPFP (L8A, Q9T) (protein)
chain: B1 chain with L267A, Q268T
B6: ELA-H: Fc-linker fusion of elabela analogue KLRKHNCLQRRCMPYHSRVPFP (L15Y) (protein)
chain: B1 chain with L274Y
B7: ELA-F: Fc-linker fusion of elabela analogue KLRKHNCLKRRCMPLHSRVPFP (Q9K) (protein)
chain: B1 chain with Q268K
B8: ELA-C: Fc-linker fusion of elabela analogue KLRKHNCLQRRCMILHSRVPFP (P14I) (protein)
chain: B1 chain with P273I
B9: ELA-K: Fc-linker fusion of elabela analogue KLRKHNCLIRRCMPLHSRVPFP (Q9I) (protein)
chain: B1 chain with Q268I
B10: APL-B: Fc-linker fusion of apelin analogue QRPRLSHKGPMVF (P12V) (protein)
chain: MRAWIFFLLCLAGRALADKTHTSPPSPAPEAAGGPSVFLFPPKPKDTLMISRTPEVTCVVVDVSHEDPEVKFNWYVDGVEVHNAKTKPREEQYNSTYRVVSVLTVLHQDWLNGKEYKCKVSNKALPAPIEKTISKAKGQPREPQVYTLPPSREEMTKNQVNLTCLVKGFYPSDIAVEWESNGQPENNYKTTPPVLDSDGSFFLNSTLTVDKSRWQQGNVFSCSVMHEALHNHYTQKSLSLSPGKGGGGSGGGGSGGGGSQRPRLSHKGPMVF
B11: APL-L: Leader-Fc-linker fusion of apelin analogue QRPRLQHKNPMAW (S6Q, G9N, P12A, F13W) (protein)
chain: B10 chain with S265Q, G268N, V271A, F272W
B12: APL-F: Fc-linker fusion of apelin analogue QRPRLSHKGPAPY (M11A, F13Y) (protein)
chain: B10 chain with M270A, V271P, F272Y
B13: APL-H: Leader-Fc-linker fusion of apelin analogue QRPRLSHKGPMHW (P12H, F13W) (protein)
chain: B10 chain with V271H, F272W
B14: APL-I: Leader-Fc-linker fusion of apelin analogue QRPRLSHKGPAAW (M11A, P12A, F13W) (protein)
chain: B10 chain with M270A, V271A, F272W
B15: APL-G: Fc-linker fusion of apelin analogue QRPRLSHKGPMAF (P12A) (protein)
chain: B10 chain with V271A
B16: APL-K: Leader-Fc-linker fusion of apelin analogue QRPRLQHKNPMAF (S6Q, G9N, P12A) (protein)
chain: B10 chain with S265Q, G268N, V271A
B17: APL-J: Leader-Fc-linker fusion of apelin analogue QRPRLSHKGPAAY (M11A, P12A, F13Y) (protein)
chain: B10 chain with M270A, V271A, F272Y
B18: APL-E: Fc-linker fusion of apelin analogue QRPRLSHKGPHPF (M11H) (protein)
chain: B10 chain with M270H, V271P
B19: ELA-I (Fc fusion)
chain: DKTHTSPPSPAPEAAGGPSVFLFPPKPKDTLMISRTPEVTCVVVDVSHEDPEVKFNWYVDGVEVHNAKTKPREEQYNSTYRVVSVLTVLHQDWLNGKEYKCKVSNKALPAPIEKTISKAKGQPREPQVYTLPPSREEMTKNQVNLTCLVKGFYPSDIAVEWESNGQPENNYKTTPPVLDSDGSFFLNSTLTVDKSRWQQGNVFSCSVMHEALHNHYTQKSLSLSPGKGGGGSGGGGSGGGGSKLRKHNSLQRRYMPLHSRVPFP
B20: ELA-J (Fc fusion)
chain: B19 chain with S249C, R252E, Y254C

Tests used:
[1] = system: APJ-eGFP fusion protein; test: Internalization assay, CHO-M1 cells expressing APJ-eGFP, high-content imaging; format: cell-based; set-up: key: 0: No Internalization; >1000; 2: 100-1000; 3: 10-100; 4: <10; settings: lowest concentration at which maximum internalization was observed; 0.914 nM to 2000 nM
Experimental: In this example, the internalization of exemplary apelin receptor agonist was assessed. CHO-M1 cells expressing an APJ-eGFP fusion protein were stained and plated in a 96-well plate. Apelin receptor agonists were serially diluted and added to the wells at concentrations ranging from 0.914 nM to 2000 nM. The cells were later imaged using an Operetta CLS™ high-content analysis system. APJ-eGFP signal was measured in the membrane and cytoplasmic region, and the ratio of membrane signal to total signal was calculated (E ratio). An internalization score was assigned based on the lowest concentration of the compound at which maximum internalization was observed. The internalization score for each apelin receptor agonist was plotted against the EC50 values for cAMP signaling and beta-arrestin signaling as shown in FIG. 2 and FIG. 3.

[2] = Proteolysis during production detected using mass spectroscopy; format: physicochemical; settings: proteolytic stability
Description: Proteolysis during production was detected using mass spectroscopy, which provides insights into the proteolytic stability of the apelin receptor agonists.

[3] = target: T1, apelin receptor (AGTRL1) on CHO-K1 cells; test: cell-based or functional assay

Row | Molecule | Internalization Score [1] | Proteolysis During Production? [2] | other results
1 | CSCC[C@H](NC(=O)[C@@H]1CSSC[C@H](NC(=O)[C@H](CC(N)=O)NC(=O)[C@H](Cc2c[nH]cn2)NC(=O)[C@H](CCCCN)NC(=O)[C@H](CCCNC(=N)N)NC(=O)[C@H](CC(C)C)NC(=O)[C@@H](N)CCCCN)C(=O)N[C@@H](CC(C)C)C(=O)N[C@@H](CCC(N)=O)C(=O)N[C@@H](CCCNC(=N)N)C(=O)N[C@@H](CCCNC(=N)N)C(=O)N1)C(=O)N1CCC[C@H]1C(=O)N[C@@H](CC(C)C)C(=O)N[C@@H](Cc1c[nH]cn1)C(=O)N[C@@H](CO)C(=O)N[C@@H](CCCNC(=N)N)C(=O)N[C@H](C(=O)N1CCC[C@H]1C(=O)N[C@@H](Cc1ccccc1)C(=O)N1CCC[C@H]1C(=O)O)C(C)C [Elabela-22, elabela-22, reference compound] | 1 (>1000) | – | –
2 | B1 | 3 (10-100) | No | –
3 | B2 | 1 (>1000) | No | –
4 | B3 | 3 (10-100) | No | –
5 | B4 | – | Yes | –
6 | B5 | 2 (100-1000) | No | –
7 | B6 | 2 (100-1000) | No | –
8 | B7 | 3 (10-100) | No | –
9 | B8 | 2 (100-1000) | No | –
10 | B9 | 2 (100-1000) | No | –
11 | B10 | 2 (100-1000) | No | –
12 | B11 | 0 | No | –
13 | B12 | 1 (>1000) | No | –
14 | B13 | 0 | No | –
15 | B14 | 1 (>1000) | No | –
16 | B15 | 3 (10-100) | No | –
17 | B16 | 0 | No | –
18 | B17 | 1 (>1000) | No | –
19 | B18 | 1 (>1000) | Yes | –
20 | B19 | – | – | beta-Arrestin EC50 (nM) Exp. 1 [3]: 17.3 nM; beta-Arrestin EC50 (nM) Exp. 2 [3]: 150 nM; cAMP EC50 (nM) Exp. 1 [3]: 22.9 nM; cAMP EC50 (nM) Exp. 2 [3]: 3.19 nM
21 | B20 | – | – | beta-Arrestin EC50 (nM) Exp. 1 [3]: 73.7 nM; cAMP EC50 (nM) Exp. 1 [3]: 18.6 nM; cAMP EC50 (nM) Exp. 2 [3]: 133 nM
